How the values were obtained:
Experiment in all cases: purified protein
Assay type in all cases: biochemical, Escherichia coli
purified protein [1] = substrate: NC(=O)C1=CN([C@@H]2O[C@H](COP(=O)(O)OP(=O)(O)OC[C@H]3O[C@@H](n4cnc5c(N)ncnc54)[C@H](O)[C@@H]3O)[C@@H](O)[C@H]2O)C=CC1; settings: apparent, forward reaction, 0.5 mM NADP+ held constant by glutathione reductase/oxidized glutathione, 50 mM HEPES pH 7.5, 0.1% DDM
purified protein [2] = substrate: NC(=O)c1ccc[n+]([C@@H]2O[C@H](COP(=O)(O)OP(=O)(O)OC[C@H]3O[C@@H](n4cnc5c(N)ncnc54)[C@H](O)[C@@H]3O)[C@@H](O)[C@H]2O)c1; settings: apparent, reverse reaction, 100 μM NADPH held constant by glucose-6-phosphate dehydrogenase/D-glucose-6-phosphate, 5 mM MgCl2, 50 mM HEPES pH 7.5, 0.1% DDM
purified protein [3] = substrate: NC(=O)c1ccc[n+]([C@@H]2O[C@H](COP(=O)(O)OP(=O)(O)OC[C@H]3O[C@@H](n4cnc5c(N)ncnc54)[C@H](OP(=O)(O)O)[C@@H]3O)[C@@H](O)[C@H]2O)c1; settings: apparent, forward reaction, NADH held constant by alcohol dehydrogenase/ethanol (50 μM in methods, 500 μM in results), 6 mM hydrazine, 50 mM HEPES pH 7.5, 0.1% DDM
purified protein [4] = substrate: NC(=O)C1=CN([C@@H]2O[C@H](COP(=O)(O)OP(=O)(O)OC[C@H]3O[C@@H](n4cnc5c(N)ncnc54)[C@H](OP(=O)(O)O)[C@@H]3O)[C@@H](O)[C@H]2O)C=CC1; settings: apparent, reverse reaction, 0.5 mM NAD+ held constant by lactate dehydrogenase/pyruvate, 50 mM HEPES pH 7.5, 0.1% DDM

B1: E. coli transhydrogenase (TH, EcTH) (Escherichia coli K-12) (protein)
chain 1: MRIGIPRERLTNETRVAATPKTVEQLLKLGFTVAVESGAGQLASFDDKAFVQAGAEIVEGNSVWQSEIILKVNAPLDDEIALLNPGTTLVSFIWPAQNPELMQKLAERNVTVMAMDSVPRISRAQSLDALSSMANIAGYRAIVEAAHEFGRFFTGQITAAGKVPPAKVMVIGAGVAGLAAIGAANSLGAIVRAFDTRPEVKEQVQSMGAEFLELDFKEEAGSGDGYAKVMSDAFIKAEMELFAAQAKEVDIIVTTALIPGKPAPKLITREMVDSMKAGSVIVDLAAQNGGNCEYTVPGEIFTTENGVKVIGYTDLPGRLPTQSSQLYGTNLVNLLKLLCKEKDGNITVDFDDVVIRGVTVIRAGEITWPAPPIQVSAQPQAAQKAAPEVKTEEKCTCSPWRKYALMALAIILFGWMASVAPKEFLGHFTVFALACVVGYYVVWNVSHALHTPLMSVTNAISGIIVVGALLQIGQGGWVSFLSFIAVLIASINIFGGFTVTQRMLKMFRKN
chain 2: MSGGLVTAAYIVAAILFIFSLAGLSKHETSRQGNNFGIAGMAIALIATIFGPDTGNVGWILLAMVIGGAIGIRLAKKVEMTEMPELVAILHSFVGLAAVLVGFNSYLHHDAGMAPILVNIHLTEVFLGIFIGAVTFTGSVVAFGKLCGKISSKPLMLPNRHKMNLAALVVSFLLLIVFVRTDSVGLQVLALLIMTAIALVFGWHLVASIGGADMPVVVSMLNSYSGWAAAAAGFMLSNDLLIVTGALVGSSGAILSYIMCKAMNRSFISVIAGGFGTDGSSTGDDQEVGEHREITAEETAELLKNSHSVIITPGYGMAVAQAQYPVAEITEKLRARGINVRFGIHPVAGRLPGHMNVLLAEAKVPYDIVLEMDEINDDFADTDTVLVIGANDTVNPAAQDDPKSPIAGMPVLEVWKAQNVIVFKRSMNTGYAGVQNPLFFKENTHMLFGDAKASVDAILKAL
- Km (purified protein [1]): 6.8 ± 1 µM
- Km (purified protein [2]): 108 ± 12 µM
- Km (purified protein [3]): 37 ± 7 µM
- Km (purified protein [4]): 4.1 ± 1.2 µM
